{"source": "patent US8865867", "data": [{"target": "HIV-1 consensus subtype C envelope (HIV-1)", "experiment": "cell-based or functional assay", "units": {"Fold Decrease in Anti-HIV activity (IC50 of mutant / IC50 of wild-type BanLec)": "fold", "IC50(nM), inhibition of infection of TZM-bl cells by pseudotyped HIV-1": "nM"}, "values": [{"substance": "BanLec H84T", "Fold Decrease in Anti-HIV activity (IC50 of mutant / IC50 of wild-type BanLec)": 23, "IC50(nM), inhibition of infection of TZM-bl cells by pseudotyped HIV-1": 7}, {"substance": "BanLec H84A", "Fold Decrease in Anti-HIV activity (IC50 of mutant / IC50 of wild-type BanLec)": 2.5, "IC50(nM), inhibition of infection of TZM-bl cells by pseudotyped HIV-1": 0.7}, {"substance": "BanLec H84M", "Fold Decrease in Anti-HIV activity (IC50 of mutant / IC50 of wild-type BanLec)": 21, "IC50(nM), inhibition of infection of TZM-bl cells by pseudotyped HIV-1": 7.7}, {"substance": "BanLec H84Y", "IC50(nM), inhibition of infection of TZM-bl cells by pseudotyped HIV-1": 0.29}, {"substance": "BanLec H84S", "Fold Decrease in Anti-HIV activity (IC50 of mutant / IC50 of wild-type BanLec)": 4.1, "IC50(nM), inhibition of infection of TZM-bl cells by pseudotyped HIV-1": 1.6}]}, {"target": "HIV-1 envelope (isolate used on monocyte-derived macrophages, not named) (HIV-1)", "experiment": "cell-based or functional assay", "units": {"IC50 of inhibition of HIV-1 replication in MDM, 7 days": "nM"}, "values": [{"substance": "BanLec", "IC50 of inhibition of HIV-1 replication in MDM, 7 days": 9.72}]}]}
